# B1: Serine/threonine-protein kinase PINK1, mitochondrial (Homo sapiens), Q9BXM7-1 (parent)
# chain: MAVRQALGRGLQLGRALLLRFTGKPGRAYGLGRPGPAAGCVRGERPGWAAGPGAEPRRVGLGLPNRLRFFRQSVAGLAARLQRQFVVRAWGCAGPCGRAVFLAFGLGLGLIEEKQAESRRAVSACQEIQAIFTQKSKPGPDPLDTRRLQGFRLEEYLIGQSIGKGCSAAVYEATMPTLPQNLEVTKSTGLLPGRGPGTSAPGEGQERAPGAPAFPLAIKMMWNISAGSSSEAILNTMSQELVPASRVALAGEYGAVTYRKSKRGPKQLAPHPNIIRVLRAFTSSVPLLPGALVDYPDVLPSRLHPEGLGHGRTLFLVMKNYPCTLRQYLCVNTPSPRLAAMMLLQLLEGVDHLVQQGIAHRDLKSDNILVELDPDGCPWLVIADFGCCLADESIGLQLPFSSWYVDRGGNGCLMAPEVSTARPGPRAVIDYSKADAWAVGAIAYEIFGLVNPFYGQGKAHLESRSYQEAQLPALPESVPPDVRQLVRALLQREASKRPSARVAANVLHLSLWGEHILALKNLKLDKMVGWLLQQSAATLLANRLTEKCCVETKMKMLFLANLECETLCQAALLLCSWRAAL
# partner: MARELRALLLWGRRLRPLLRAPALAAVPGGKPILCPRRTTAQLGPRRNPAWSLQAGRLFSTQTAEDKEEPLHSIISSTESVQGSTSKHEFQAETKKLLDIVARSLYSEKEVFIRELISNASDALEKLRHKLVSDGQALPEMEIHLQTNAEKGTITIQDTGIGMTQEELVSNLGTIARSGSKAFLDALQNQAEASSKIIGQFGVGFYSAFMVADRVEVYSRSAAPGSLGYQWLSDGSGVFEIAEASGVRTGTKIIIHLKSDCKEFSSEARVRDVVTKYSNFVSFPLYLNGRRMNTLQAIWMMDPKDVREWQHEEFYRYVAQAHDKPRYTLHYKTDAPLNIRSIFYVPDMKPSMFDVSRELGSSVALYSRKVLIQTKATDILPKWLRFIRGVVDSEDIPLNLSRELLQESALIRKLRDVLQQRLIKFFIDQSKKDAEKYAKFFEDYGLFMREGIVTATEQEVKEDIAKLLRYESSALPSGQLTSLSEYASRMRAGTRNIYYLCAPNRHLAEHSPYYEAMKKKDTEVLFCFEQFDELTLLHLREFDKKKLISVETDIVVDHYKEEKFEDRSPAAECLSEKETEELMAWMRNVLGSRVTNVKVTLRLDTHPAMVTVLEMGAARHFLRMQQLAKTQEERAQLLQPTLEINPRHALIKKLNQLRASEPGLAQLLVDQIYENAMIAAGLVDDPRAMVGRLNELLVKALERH
# Variants of: B1
# Conditions: with trap1_human TRAP1, Q12931
row,Variant,effect of a mutation on the interaction
1,D384A,decreasing interaction
2,D362A,decreasing interaction
3,L347P,decreasing interaction
4,G309D,decreasing interaction
5,K219A;D362A;D384A,decreasing interaction
